The text below walks through data of patent publication US11110182B2, “Multifunctional RNA nanoparticles and methods for treating cancer and therapeutic resistant cancer” (University of Cincinnati, priority 2016, dated 2021).

For the data set, the system named is HER2-overexpressing BT474 cells. Nature of the data set: pRNA nanoparticle cellular uptake assay (confocal, flow cytometry), BT474. In kind it is cell-based, human. The following applies: for cellular uptake by flow cytometry: BT474, 3 h incubation at 37° C.; for binding and internalization into cells: BT474, AF647-conjugated, 10 μg/mL, confocal microscopy. Here is the method: FIG. 2A) Confocal microscopy analyses of the internalization of AF647-labeled control and pRNA-HER2apt-siMED1 nanoparticles by BT474 cells. Scale bar: 10 μm. FIG. 2B) Flow cytometry assays of the cellular uptake of AF647-labeled control and pRNA-HER2apt-siMED1 nanoparticles by BT474 cells. FIG. 2C) IVIS Lumina live imaging of BT474 orthotopic xenograft mice 24 hrs after i.v. injection of indicated AF647-labeled pRNA nanoparticles (10 mg/Kg). FIG. 2D) Major organs and tumors of above mice were excised and imaged for AF647 fluorescence. FIG. 2E) Frozen tumor sections were examined for localization of AF647-labeled pRNA nanoparticles (red) using confocal microscopy. The blood vessels were stained with anti-CD31 primary antibody and Alexa488-conjugated secondary antibody (green). The nuclei were stained with DAPI (blue). Scale bar: 50 μm. FIG. 2F) The fluorescence intensity of AF647-labeled pRNA nanoparticles (red) in frozen tumor sections was quantified with Image-pro Plus software.
Cell culture. Human breast cancer luciferase-overexpressing BT474 and MDA-MB-231 cells were maintained in DMEM medium (Hyclone, Thermo Scientific) supplemented with 10% fetal bovine serum (FBS, Sigma) and 1% penicillin/streptomycin (Corning) at 37° C. in a humidified atmosphere with 5% CO2.^53 • Generation of pRNA nanoparticles. The two strands of pRNA were synthesized with the DNA templates, which were amplified with overlapping primers (Sigma) by PCR methods, using a T7 promoter-controlled in vitro RNA transcription system as previously described^33 (Table 1). All the CTP and UTP used for synthesis of the pRNA nanoparticles were 2′-fluoro modified, except the control unmodified pRNA nanoparticles used in the stability assays. Following an overnight transcription at 37° C., RNA strands were purified using RNA clean and concentrator kits (ZYMO research) and examined by 8 M urea denatured 8% PAGE gel. pRNA nanoparticles were assembled by mixing the equal molar amounts of p1 and p2 strands and gradually annealing from 90° C. to 20° C. in 1×RNA annealing buffer containing 50 mM Tris-HCl (pH 7.5), 50 mM NaCl and 1 mM EDTA on a PCR machine. […] The hydrodynamic diameter and Tm value of pRNA nanoparticles were determined using dynamic light scattering and TGGE assay, respectively, as previously described.^54 The AFM imaging of the pRNA nanoparticles was performed at the University of Nebraska Medical Center imaging facility as previously reported.^55 Briefly, the pRNA nanoparticles (5 μL) were deposited on APS modified mica ^56 for a total of 2 min of incubation time. […]
For orientation: Flow cytometry measures light scatter and fluorescence of single cells or particles in a stream.

B1: pRNA-HER2apt-siMED1: 3-WJ pRNA nanoparticle bearing a HER2-targeting RNA aptamer and two different MED1 siRNAs; strands p1 SEQ ID NO: 3, p2 SEQ ID NO: 4 (nucleic acid)
chain 1: GGACAGUGAAAGUGAGUCAAAGGAUCAAUCAUGGCCAAAGAUGUUACUUUGAGAGCCUU
chain 2: GGCUCUCAAAGUAACAUCUAAGGCCAUGUGUAUGUGGGGGGAGGACGAUGCGGUCUGCUGUGCUUGAUAUGCCCCAGACGACUCGCCCCCCACAUACUUUGUUGAUCCAAUGACUCACUUUCACUGUCCUU
modifications: 2'-F modification; third strand may lack entry; pRNA-HER2apt-siMED1, p1; pRNA-HER2apt-siMED1, p2
B1: the “cellular uptake by flow cytometry” value is “effectively taken up”; the “binding and internalization into cells” value was “can bind and be readily internalized”.

B2: pRNA-HER2apt^mut-siMED1: control pRNA nanoparticle with mutant HER2 aptamer; strands p1 SEQ ID NO: 5, p2 SEQ ID NO: 6 (nucleic acid)
chain 1: GGACAGUGAAAGUGAGUCAAAGGAUCAAUCAUGGCCAAAGAUGUUACUUUGAGAGCCUU
chain 2: GGCUCUCAAAGUAACAUCUAAGGCCAUGUGUAUGUGGGAUGAGGAGUAUGAAGAUACCUGUACUUGAUAUGCCCCAGACGACAUUCCCCCCACAUACUUUGUUGAUCCAAUGACUCACUUUCACUGUCCUU
modifications: pRNA-HER2apt(mut)-siMED1, p1; pRNA-HER2apt(mut)-siMED1, p2
B2: the “cellular uptake by flow cytometry” value is given as “notably decreased the uptake efficiency”; the “binding and internalization into cells” value is reported as “dramatically impaired”.
